Earlier results in patent US20030134789A1, “Compositions and methods for protecting tissues and cells from damage, and for repairing damaged tissues” (priority 2001, published 2003).

Details: humans, an hour after ingesting 200 g of raw peanuts

B1: peanut agglutinin (PNA): dietary lectin found in the blood of humans after ingesting raw peanuts (protein, UniProt P02872 24-273, looked up)
Galactose-binding lectin: AETVSFNFNSFSEGNPAINFQGDVTVLSNGNIQLTNLNKVNSVGRVLYAMPVRIWSSATGNVASFLTSFSFEMKDIKDYDPADGIIFFIAPEDTQIPAGSIGGGTLGVSDTKGAGHFVGVEFDTYSNSEYNDPPTDHVGIDVNSVDSVKTVPWNSVSGAVVKVTVIYDSSTKTLSVAVTNDNGDITTIAQVVDLKAKLPERVKFGFSASGSLGGRQIHLIRSWSFTSTLITTTRRSIDNNEKKIMNMASA
- level in the blood: 1 to 5 µg/mL
